# Measured values reported in patent US20210388105A1 (ELPISCIENCE SUZHOU BIOPHARMA, published 2021).
# T1: mouse CD39 (full length, on CHOK1-mCD39 cells) (mouse, UniProt P55772 1-510)
# T1 construct: whole, on cells
# T1 sequence (looked up): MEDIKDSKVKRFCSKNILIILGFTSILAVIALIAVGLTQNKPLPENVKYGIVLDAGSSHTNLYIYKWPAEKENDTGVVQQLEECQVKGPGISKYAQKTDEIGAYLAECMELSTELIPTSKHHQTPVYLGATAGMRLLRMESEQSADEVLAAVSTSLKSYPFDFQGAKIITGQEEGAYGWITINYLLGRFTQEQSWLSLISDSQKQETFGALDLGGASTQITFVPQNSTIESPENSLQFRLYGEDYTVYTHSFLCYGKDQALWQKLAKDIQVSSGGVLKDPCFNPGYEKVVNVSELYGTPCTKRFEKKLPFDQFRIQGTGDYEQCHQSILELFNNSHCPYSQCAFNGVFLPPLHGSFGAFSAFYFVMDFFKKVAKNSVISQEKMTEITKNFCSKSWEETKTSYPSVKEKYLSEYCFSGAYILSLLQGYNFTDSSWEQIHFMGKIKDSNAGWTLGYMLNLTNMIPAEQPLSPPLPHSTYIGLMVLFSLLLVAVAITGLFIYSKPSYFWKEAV
# T2: cynomolgus CD39 (full length, on CHOK1-cynoCD39 cells) (cynomolgus monkey, UniProt A0A7N9DGH8 1-510)
# T2 construct: whole, on cells; also called cCD39
# T2 sequence: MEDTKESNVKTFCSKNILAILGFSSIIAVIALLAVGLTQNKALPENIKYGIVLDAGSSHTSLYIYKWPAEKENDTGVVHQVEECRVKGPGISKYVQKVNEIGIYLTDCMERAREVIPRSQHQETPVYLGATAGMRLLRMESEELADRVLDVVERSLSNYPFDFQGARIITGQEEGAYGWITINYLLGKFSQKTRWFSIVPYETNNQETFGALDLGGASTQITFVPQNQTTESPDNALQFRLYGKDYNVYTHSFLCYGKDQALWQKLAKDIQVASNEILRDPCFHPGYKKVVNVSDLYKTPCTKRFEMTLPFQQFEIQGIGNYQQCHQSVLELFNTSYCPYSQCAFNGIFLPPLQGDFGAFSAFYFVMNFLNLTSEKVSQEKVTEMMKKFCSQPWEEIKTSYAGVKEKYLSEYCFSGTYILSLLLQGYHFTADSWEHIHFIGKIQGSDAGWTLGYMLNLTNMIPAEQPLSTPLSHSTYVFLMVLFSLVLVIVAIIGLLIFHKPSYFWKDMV
# T3: human CD39 (full length, on cells) (human, UniProt P49961 1-510)
# T3 construct: Recombinant on CHOK1-hCD39 cells or natural on SK-MEL-28, SK-MEL-5 and MOLP-8 cells; the cell line is named under assay; also called hCD39; ENTPD1
# T3 sequence: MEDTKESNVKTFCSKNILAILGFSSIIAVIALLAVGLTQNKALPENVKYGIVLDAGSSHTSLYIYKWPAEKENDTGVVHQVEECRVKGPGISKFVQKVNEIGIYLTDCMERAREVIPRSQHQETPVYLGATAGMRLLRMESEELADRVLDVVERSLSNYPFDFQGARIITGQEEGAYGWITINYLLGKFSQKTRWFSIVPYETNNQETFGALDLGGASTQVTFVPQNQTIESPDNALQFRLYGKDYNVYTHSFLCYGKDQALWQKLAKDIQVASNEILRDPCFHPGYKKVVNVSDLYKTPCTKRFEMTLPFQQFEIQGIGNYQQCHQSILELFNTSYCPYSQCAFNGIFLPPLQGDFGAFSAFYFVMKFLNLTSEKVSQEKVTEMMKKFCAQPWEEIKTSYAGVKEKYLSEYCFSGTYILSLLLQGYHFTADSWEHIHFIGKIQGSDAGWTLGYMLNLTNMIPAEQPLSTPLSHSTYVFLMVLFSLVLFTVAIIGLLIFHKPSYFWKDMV
# Legend:
# [1] = target: T1, mouse CD39 (full length, on CHOK1-mCD39 …); assay: FACS, CHOK1-mCD39 cells
# Description: (§1) FACS were used to determine binding of the antibodies to cell lines expressing CD39 naturally (SK-MEL-28) or recombinantly (CHOK1-hCD39, CHOK1-cynoCD39, and CHOK1-mCD39), or with cells lacking CD39 expression (CHOK1-blank) as a negative control.
# (§2) CHOK1-hCD39, CHOK1-cCD39, CHOK1-mCD39 and CHOK1-blank cells were maintained in culture medium according to ATCC procedure. Cells were collected and re-suspended in blocking buffer at a density of 3×10⁶ cells/ml. Cells were transferred to 96 well FACS plates at 100 μl/well (3×10⁵ cells/well), the plates were centrifuged and washed twice with FACS buffer (PBS, 1% FBS, 0.05% Tween-20). 4-folds serial dilution of anti-CD39 antibodies were prepared in FACS buffer starting from 30 μg/ml. Reference antibody 9-8B and mouse/human control IgG were used as positive and negative controls, respectively. Cells were re-suspended in 100 μL/well diluted antibodies, and the plates were incubated at 4° C. for 60 min. […] The plates were washed with FACS buffer, and cells were re-suspended in 100 μL/well of PBS. Cells were then analyzed with FACSVerse™ and mean fluorescence intensity were determined. Full binding curves were generated on the CD39 expressing cells by testing a range of antibody concentrations. Apparent affinity was determined for each antibody using Prism software.
# [2] = target: T2, cynomolgus CD39 (full length, on …); assay: FACS, CHOK1-cynoCD39 cells
# Description: as §1, §2
# [3] = target: T3, human CD39 (full length, on cells); assay: FACS, CHOK1-hCD39 cells
# Description: as §1, §2
# [4] = target: T3, human CD39 (full length, on cells); assay: cell-based or functional assay
# [5] = target: T3, human CD39 (full length, on cells); assay: FACS, SK-MEL-28 cells
# Protocol: as §1
# (§3) Similarly, human CD39 expressing cells SK-MEL-5, SK-MEL-28 or MOLP-8, were incubated with a gradient concentration of anti-CD39 antibodies for 30 minutes at 4° C. Cells were washed 3 times using FACS buffer and next incubated with fluorescence labelled secondary antibody (goat-anti-mouse IgG or goat anti-human IgG) for 30 minutes at 4° C. Cells were washed 3 times and then re-suspended in FACS buffer and analyzed by flow cytometry analysis on BD Celesta. Data plotted and analyzed using GraphPad Prism 8.02.
# [6] = target: T3, human CD39 (full length, on cells); assay: FACS, MOLP-8 cells
# Protocol: as §3
# (§4) The binding affinity of the humanized antibodies for c14 was determined by FACS using MOLP-8 cells expressing human CD39, using similar methods as described in Example 3.2.
# [7] = target: T3, human CD39 (full length, on cells); assay: FACS on MOLP-8 cells, MFI
# Protocol: as §3, §4
binder,measurement,setting,value
"mAb35 (antibody, V domains shown, mouse hybridoma antibody) VH: EVRLQQSGAELVKPGASVKLSCTASGFNIEDTYVHWMKQRPEQGLEWIGRIDPAIDNSKYDPKFQGKATITAVSSSNTAYLQLSSLTSEDTAVYYCALYDGYNVYAMDYWGQGTSVTVSS VL: DIVMTQAAFSNPVTLGTSASISCRSSKNLLHSNGITYLYWYLQRPGQSPQLLIYRASTLASGVPNRFSGSESGTDFTLRISRVEAEDVGVYYCAQLLELPHTFGGGTKLEIK",binding result,[1],no binding (tested: 30 µg/ml highest concentration)
same,EC50,[2],5.3 nM
same,EC50,[3],5.2 nM
same,SK-MEL-28 cell based ATPase inhibition % at 10 nM,[4],56%
same,EC50,[5],1.8 nM
"hu14.H2L2 (antibody, V domains shown, humanized c14) VH: EVQLVESGGGLVKPGGSLRLSCAASGFTFSKYWMNWVRQSPGKGLEWVGEIRLKSNKYGTHYAESVKGRFTISRDDSKNTLYLQMNSLKTEDTAVYYCTTQLDLYWFFDVWGQGTTVTVSS VL: EIVLTQSPATLSLSPGERATLSCRASQSISDYLHWYQQKPGQSPRLLIYYASQSISGIPARFSGSGSGTDFTLTISSLEPEDFAVYFCQNGHSLPLTFGGGTKLEIK",EC50,[6],6.91 nM
"hu14.H2L3 (antibody, V domains shown, humanized c14) VH: EVQLVESGGGLVKPGGSLRLSCAASGFTFSKYWMNWVRQSPGKGLEWVGEIRLKSNKYGTHYAESVKGRFTISRDDSKNTLYLQMNSLKTEDTAVYYCTTQLDLYWFFDVWGQGTTVTVSS VL: EIVLTQSPATLSVSPGERATLSCRASQSISDYLHWYQQKPGQSPRLLIYYASQSISGIPARFSGSGSGTDFTLTISSVEPEDFAVYFCQNGHSLPLTFGGGTKLEIK",binding result,[7],binds
"hu14.H2L1 (antibody, V domains shown, humanized c14) VH: EVQLVESGGGLVKPGGSLRLSCAASGFTFSKYWMNWVRQSPGKGLEWVGEIRLKSNKYGTHYAESVKGRFTISRDDSKNTLYLQMNSLKTEDTAVYYCTTQLDLYWFFDVWGQGTTVTVSS VL: EIVLTQSPATLSLSPGERATLSCRASQSISDYLHWYQQKPGQAPRLLIYYASQSISGIPARFSGSGSGTDFTLTISSLEPEDFAVYYCQNGHSLPLTFGGGTKLEIK",binding result,[7],binds
"hu14.H4L2 (antibody, V domains shown, humanized c14) VH: EVQLVESGGGLVKPGGSMRLSCAASGFTFSKYWMNWVRQSPGKGLEWVAEIRLKSNKYGTHYAESVKGRFTISRDDSKNTVYLQMNSLKTEDTAVYYCTTQLDLYWFFDVWGQGTTVTVSS VL: EIVLTQSPATLSLSPGERATLSCRASQSISDYLHWYQQKPGQSPRLLIYYASQSISGIPARFSGSGSGTDFTLTISSLEPEDFAVYFCQNGHSLPLTFGGGTKLEIK",binding result,[7],binds
"hu14.H3L2 (antibody, V domains shown, humanized c14) VH: EVQLVESGGGLVKPGGSLRLSCAASGFTFSKYWMNWVRQSPGKGLEWVAEIRLKSNKYGTHYAESVKGRFTISRDDSKNTVYLQMNSLKTEDTAVYYCTTQLDLYWFFDVWGQGTTVTVSS VL: EIVLTQSPATLSLSPGERATLSCRASQSISDYLHWYQQKPGQSPRLLIYYASQSISGIPARFSGSGSGTDFTLTISSLEPEDFAVYFCQNGHSLPLTFGGGTKLEIK",binding result,[7],binds
"hu14.H1L4 (antibody, V domains shown, humanized c14) VH: EVQLVESGGGLVKPGGSLRLSCAASGFTFSKYWMNWVRQAPGKGLEWVGEIRLKSNKYGTHYAESVKGRFTISRDDSKNTLYLQMNSLKTEDTAVYYCTTQLDLYWFFDVWGQGTTVTVSS VL: EIVMTQSPATLSVSPGERVTLSCRASQSISDYLHWYQQKPGQSPRLLIYYASQSISGIPARFSGSGSGTDFTLTISSVEPEDFAVYFCQNGHSLPLTFGGGTKLEIK",binding result,[7],binds
"hu14.H2L4 (antibody, V domains shown, humanized c14) VH: EVQLVESGGGLVKPGGSLRLSCAASGFTFSKYWMNWVRQSPGKGLEWVGEIRLKSNKYGTHYAESVKGRFTISRDDSKNTLYLQMNSLKTEDTAVYYCTTQLDLYWFFDVWGQGTTVTVSS VL: EIVMTQSPATLSVSPGERVTLSCRASQSISDYLHWYQQKPGQSPRLLIYYASQSISGIPARFSGSGSGTDFTLTISSVEPEDFAVYFCQNGHSLPLTFGGGTKLEIK",binding result,[7],binds
"hu14.H1L3 (antibody, V domains shown, humanized c14) VH: EVQLVESGGGLVKPGGSLRLSCAASGFTFSKYWMNWVRQAPGKGLEWVGEIRLKSNKYGTHYAESVKGRFTISRDDSKNTLYLQMNSLKTEDTAVYYCTTQLDLYWFFDVWGQGTTVTVSS VL: EIVLTQSPATLSVSPGERATLSCRASQSISDYLHWYQQKPGQSPRLLIYYASQSISGIPARFSGSGSGTDFTLTISSVEPEDFAVYFCQNGHSLPLTFGGGTKLEIK",binding result,[7],binds
"mAb13 (antibody, V domains shown, mouse hybridoma antibody) VH: QIQLVQSGPELKKPGETVKISCKASGYTFTNYGMNWVKQAPGKGLRWMGLINTYTGEPTYADDFKDRFAFSLETSASTAFLQINNLKDEDMATYFCARKGIYYDYVWFFDVWGAGTTVTVSS VL: DIQMTQSPSSLSTSLGGKVSITCKASQDINRYIAWYQHKPGKGPRLLIHYTSTLLPGIPSRFSGSGSGRDYSFSISNLEPEDIATYFCLQYSNLLTFGGGTKLEIK",binding result,[1],no binding (tested: 30 µg/ml highest concentration)
same,EC50,[2],21 nM
same,EC50,[3],30 nM
same,SK-MEL-28 cell based ATPase inhibition % at 10 nM,[4],43%
same,EC50,[5],11 nM
"mAb34 (antibody, V domains shown, mouse hybridoma antibody) VH: EIQVQQSGPELVKPGASVKVSCKASGYSFTDYNMYWVKQSHGKSLEWIGFIDPYNGYTSYNQKFKGKATLTIDKSSSTAFMHLNSLTSEDSAVYYCAIYGYDDAYYFDYWGQGTTLTVSS VL: QIVLTQSPAIMSASPGEKVTITCSATSSVSYMHWFRQKPGTSPKLWIYSTSNLASGVPARFSGSGSGTSYSLTISRMAAEDAATYYCQQRITYPFTFGSGTKLEIT",binding result,[1],no binding (tested: 30 µg/ml highest concentration)
same,EC50,[2],3.1 nM
same,EC50,[3],4.4 nM
same,SK-MEL-28 cell based ATPase inhibition % at 10 nM,[4],72%
same,EC50,[5],4.7 nM
